# In patent US20260274896A1 (ICHIMARU PHARCOS, published 2026):
# *1 amine or outer side, *2 acyl side, *3 side chain or, on linkers, in order; H or OH if unused. Bridges are numbered along the chain shown (N, C = ends). [ ]: non-standard residue; d: D form. TBMB = c1c(C[*:1])cc(C[*:3])cc1C[*:2]; NMeY = CN[C@@H](Cc1ccc(O)cc1)C(=O)O; pXylylene = c1cc(C[*:2])ccc1C[*:1]; Dap = NC[C@H](N)C(=O)O; Mpa = O=C(O)CCS; Sar = CNCC(=O)O
# T1: Vasoactive intestinal peptide receptor 2 (VIPR2), human, on the human VIPR2-expressing cell line (Catalog No. … (human, UniProt P41587 24-438))
# T1 construct: whole, on cells; also called VPAC2; VIPR2-expressing cells
# T1 sequence (looked up): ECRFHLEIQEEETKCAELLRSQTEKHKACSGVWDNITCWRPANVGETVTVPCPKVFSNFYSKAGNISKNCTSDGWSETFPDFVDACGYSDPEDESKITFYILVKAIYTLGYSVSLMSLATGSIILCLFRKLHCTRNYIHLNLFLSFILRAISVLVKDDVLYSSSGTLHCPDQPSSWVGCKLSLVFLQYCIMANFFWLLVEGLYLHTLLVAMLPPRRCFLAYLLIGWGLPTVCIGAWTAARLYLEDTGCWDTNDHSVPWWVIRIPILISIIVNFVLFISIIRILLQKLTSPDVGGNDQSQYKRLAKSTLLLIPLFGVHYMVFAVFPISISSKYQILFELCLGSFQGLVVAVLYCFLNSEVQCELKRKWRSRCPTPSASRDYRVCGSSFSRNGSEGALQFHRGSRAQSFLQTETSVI
# Biological target: T1, Vasoactive intestinal peptide receptor …
# Test: summary of the Examples (binding to VIPR2-expressing cells)
row,binding result,Binder
1,binds,"Ac-CPPYLPKYLCDLI-NH2 (disulfide 1-10; lactam 7-11; SMILES CC[C@H](C)[C@H](NC(=O)[C@H](CC(C)C)NC(=O)[C@@H]1CC(=O)NCCCC[C@@H]2NC(=O)[C@@H]3CCCN3C(=O)[C@H](CC(C)C)NC(=O)[C@H](Cc3ccc(O)cc3)NC(=O)[C@@H]3CCCN3C(=O)[C@@H]3CCCN3C(=O)[C@@H](NC(C)=O)CSSC[C@H](NC(=O)[C@H](CC(C)C)NC(=O)[C@H](Cc3ccc(O)cc3)NC2=O)C(=O)N1)C(N)=O, Synthetic bicyclic peptide) [Seq-10]"
2,binds,"XYLPKYLCDLI (Mpa at position 1; NmeTyr at position 2; thioether bridge via DBmXy (1,3-bis(bromomethyl)benzene) linker (1-8); side-chain amide(5-9) between Lys5 and Asp9; C-terminal amide (NH2), Synthetic bicyclic peptide) [Seq-6]"
3,binds,"[Mpa][NMeY]LPKYLCDLI-NH2 (linker 1-8 via pXylylene; lactam 5-9; SMILES CC[C@H](C)[C@H](NC(=O)[C@H](CC(C)C)NC(=O)[C@@H]1CC(=O)NCCCC[C@@H]2NC(=O)[C@@H]3CCCN3C(=O)[C@H](CC(C)C)NC(=O)[C@H](Cc3ccc(O)cc3)N(C)C(=O)CCSCc3ccc(cc3)CSC[C@H](NC(=O)[C@H](CC(C)C)NC(=O)[C@H](Cc3ccc(O)cc3)NC2=O)C(=O)N1)C(N)=O, Synthetic bicyclic peptide) [Seq-7]"

# More lines, now with the values behind:
row,Binder,binding result
1,"XYLPKYLCDLI (Mpa at position 1; NmeTyr at position 2; thioether bridge via DBoXy (1,2-bis(bromomethyl)benzene) linker (1-8); side-chain amide(5-9) between Lys5 and Asp9; C-terminal amide (NH2), Synthetic bicyclic peptide) [Seq-5]",binds
2,"XYLPKYLCDLI (Mpa at position 1; NmeTyr at position 2; thioether bridge via DIPen (1,5-diiodopentane) linker (1-8); side-chain amide(5-9) between Lys5 and Asp9; C-terminal amide (NH2), Synthetic bicyclic peptide) [Seq-3]",binds
3,"XYLPKYLCDLI (Mpa at position 1; NmeTyr at position 2; thioether bridge via DIHex (1,6-diiodohexane) linker (1-8); side-chain amide(5-9) between Lys5 and Asp9; C-terminal amide (NH2), Synthetic bicyclic peptide) [Seq-4]",binds
4,"[Mpa]PPYLPKYLCDLI-NH2 (disulfide 1-10; lactam 7-11; SMILES CC[C@H](C)[C@H](NC(=O)[C@H](CC(C)C)NC(=O)[C@@H]1CC(=O)NCCCC[C@@H]2NC(=O)[C@@H]3CCCN3C(=O)[C@H](CC(C)C)NC(=O)[C@H](Cc3ccc(O)cc3)NC(=O)[C@@H]3CCCN3C(=O)[C@@H]3CCCN3C(=O)CCSSC[C@H](NC(=O)[C@H](CC(C)C)NC(=O)[C@H](Cc3ccc(O)cc3)NC2=O)C(=O)N1)C(N)=O, Synthetic bicyclic peptide derived from VIpep-3) [Seq-1]",binds
5,"XYLPKYLCDLI (Mpa at position 1; NmeTyr (N-methyl-Tyr) at position 2; thioether bridge via DIBut (1,4-diiodobutane) linker (1-8); side-chain amide(5-9) between Lys5 and Asp9; C-terminal amide (NH2), Synthetic bicyclic peptide) [Seq-2]",binds

# Biological target: T1, Vasoactive intestinal peptide receptor …
# Test: competitive cell-based ELISA on human VIPR2-expressing cells; competitor Biotin-VIpep-3 (1000 nM)
# Protocol: (§1) To confirm the binding activity of the amino acid substituted peptides to VIPR2, a competitive binding assay was constructed using the cell-based ELISA method shown in FIG. 3. The following is a brief description of this cell-based ELISA method. Human VIPR2-expressing cell line (Catalog No. HTS079RTA, manufactured by EUROFINS) was spread in a 96-well plate using the culture medium provided by the manufacturer, and cultured overnight at 37° C. in a CO₂ incubator. After washing the plates with HBSS containing 0.1% BSA, the mixtures containing Biotin-VIpep-3 (1000 nM) and any concentration of amino acid substituted peptide or VIpep-3 were prepared and added at 50 μL/well. After reaction on ice for 60 minutes, the plate was washed with 0.1% BSA containing HBSS. Biotin-VIpep-3 bound to VIPR2-expressing cells adhering to the plate was detected with SA-HRP (catalog no. ab7403, Abcam). For HRP quantification, SuperSignal ELISA Pico Chemiluminescent Substrate (Catalog No. 37070, ThermoFisher) was used to measure chemiluminescence values. […] In other words, the binding activity of amino acid substituted peptides and VIpep-3 to VIPR2 is detected as a competitive inhibitory activity against Biotin-VIpep-3 binding. […] Then, using the 50% inhibitory activity value of VIpep-3 as 1, the relative inhibitory activity values of the amino acid-substituted peptides were calculated.
row,binding result,Binder
1,binds,"Ac-CPPYLPRRLCTLLLRS-OH (disulfide 1-10; SMILES CC(=O)N[C@H]1CSSC[C@@H](C(=O)N[C@H](C(=O)N[C@@H](CC(C)C)C(=O)N[C@@H](CC(C)C)C(=O)N[C@@H](CC(C)C)C(=O)N[C@@H](CCCNC(=N)N)C(=O)N[C@@H](CO)C(=O)O)[C@@H](C)O)NC(=O)[C@H](CC(C)C)NC(=O)[C@H](CCCNC(=N)N)NC(=O)[C@H](CCCNC(=N)N)NC(=O)[C@@H]2CCCN2C(=O)[C@H](CC(C)C)NC(=O)[C@H](Cc2ccc(O)cc2)NC(=O)[C@@H]2CCCN2C(=O)[C@@H]2CCCN2C1=O, also called Vlpep-3) [VIpep-3]"

# Biological target: T1, Vasoactive intestinal peptide receptor …
# Test: competitive cell-based ELISA on human VIPR2-expressing cells; competitor Biotin-VIpep-3 (1000 nM), N=4
# Protocol: as §1
row,binding result,Binder
1,binds,"[Mpa][NMeY]L[Sar]CYLCSLI-NH2 (linker 1-5-8 via TBMB; SMILES CC[C@H](C)[C@H](NC(=O)[C@H](CC(C)C)NC(=O)[C@H](CO)NC(=O)[C@@H]1CSCc2cc3cc(c2)CSC[C@H](NC(=O)CN(C)C(=O)[C@H](CC(C)C)NC(=O)[C@H](Cc2ccc(O)cc2)N(C)C(=O)CCSC3)C(=O)N[C@@H](Cc2ccc(O)cc2)C(=O)N[C@@H](CC(C)C)C(=O)N1)C(N)=O, Synthetic bicyclic peptide) [Seq-8]"
2,binds,"[Mpa][NMeY]L[Sar]CYLC[Dap]LI-NH2 (linker 1-5-8 via TBMB; SMILES CC[C@H](C)[C@H](NC(=O)[C@H](CC(C)C)NC(=O)[C@H](CN)NC(=O)[C@@H]1CSCc2cc3cc(c2)CSC[C@H](NC(=O)CN(C)C(=O)[C@H](CC(C)C)NC(=O)[C@H](Cc2ccc(O)cc2)N(C)C(=O)CCSC3)C(=O)N[C@@H](Cc2ccc(O)cc2)C(=O)N[C@@H](CC(C)C)C(=O)N1)C(N)=O, Synthetic bicyclic peptide) [Seq-9]"
